These results are taken from the supplement of paper PMC9112550, “Optimization of the antimicrobial peptide Bac7 by deep mutational scanning” (BMC Biology, 2022).

The data set has as its system Escherichia coli TOP10. Put plainly: shrunken log2 fold change of peptide-encoding DNA abundance (4.5 h post-induction vs induction); higher = less antimicrobial activity (less host growth inhibition). Conditions: time post-induction: 4.5 h; library: site-saturation at positions 5, 18, 19, 20.
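Also: peptides expressed intracellularly from a pBAD plasmid library in pooled LB shake-flask culture, induced with 0.3% L-arabinose, DNA abundance read by NGS, three biological replicates, DESeq2 with apeglm shrinkage.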

With RRIRFRPPRLPRPRPRPYCCPRP, the “shrunken log2 fold change” value was -0.324. In the case of RRIRYRPPRLPRPRPRPVFDPRP, the “shrunken log2 fold change” value is -1.18. In the case of RRIRFRPPRLPRPRPRPMDCPRP, the “shrunken log2 fold change” value amounted to 0.00893. For RRIRKRPPRLPRPRPRPPPQPRP, the “shrunken log2 fold change” value stood at 1.02.

As for RRIRIRPPRLPRPRPRPLDSPRP, the “shrunken log2 fold change” value is -0.0212.

For the sequence RRIRCRPPRLPRPRPRPCLDPRP, the “shrunken log2 fold change” value turned out to be 0.11.

On to RRIRMRPPRLPRPRPRPRMCPRP, for which the “shrunken log2 fold change” value worked out at 0.0537. In the case of RRIRERPPRLPRPRPRPLVEPRP it was -0.229. For RRIRIRPPRLPRPRPRPHPQPRP, the “shrunken log2 fold change” value is -0.0725. In the case of RRIRGRPPRLPRPRPRPGGKPRP it was 0.555. Turning to RRIRARPPRLPRPRPRPFYSPRP, the “shrunken log2 fold change” value is -0.0849. Turning to RRIRIRPPRLPRPRPRPQNRPRP, the “shrunken log2 fold change” value was -0.386. The value for RRIRIRPPRLPRPRPRPRNNPRP was -0.355; that for RRIRMRPPRLPRPRPRPNQAPRP was -0.00973.

Turning to RRIRYRPPRLPRPRPRPVFGPRP, the “shrunken log2 fold change” value is -0.415. Regarding RRIRSRPPRLPRPRPRPSYIPRP, the “shrunken log2 fold change” value was -1.48. Take RRIRMRPPRLPRPRPRPSKYPRP: the “shrunken log2 fold change” value is -0.166. In the case of RRIRTRPPRLPRPRPRPNPPPRP, the “shrunken log2 fold change” value turned out to be 0.199.

Regarding RRIRGRPPRLPRPRPRPPYNPRP, the “shrunken log2 fold change” value is -0.163. Consider RRIRWRPPRLPRPRPRPDLEPRP, for which the “shrunken log2 fold change” value worked out at 0.974. With RRIRKRPPRLPRPRPRPNTFPRP, the “shrunken log2 fold change” value is -0.0899.

Regarding RRIRSRPPRLPRPRPRPVPRPRP, the “shrunken log2 fold change” value was 0.427. In the case of RRIRFRPPRLPRPRPRPGVFPRP it was -0.227.

For the sequence RRIRERPPRLPRPRPRPPWEPRP, the “shrunken log2 fold change” value is 0.145. In the case of RRIRQRPPRLPRPRPRPQGPPRP it was 0.189; in that of RRIRQRPPRLPRPRPRPSAVPRP, -0.126; in that of RRIRERPPRLPRPRPRPTLGPRP, 0.0905. Take RRIRLRPPRLPRPRPRPNANPRP: the “shrunken log2 fold change” value was -0.101.

Take RRIRNRPPRLPRPRPRPEVMPRP: the “shrunken log2 fold change” value was 0.0307. For RRIRERPPRLPRPRPRPNYKPRP, the “shrunken log2 fold change” value was -0.722. In the case of RRIRGRPPRLPRPRPRPDWWPRP it was 0.937; in that of RRIRSRPPRLPRPRPRPICWPRP, 0.0446; in that of RRIRSRPPRLPRPRPRPSYLPRP, -0.707. Consider RRIRERPPRLPRPRPRPTQIPRP, for which the “shrunken log2 fold change” value amounted to 0.0737.

With RRIRMRPPRLPRPRPRPRACPRP, the “shrunken log2 fold change” value was 0.593. Take RRIRKRPPRLPRPRPRPNSTPRP: the “shrunken log2 fold change” value was -0.0291. Regarding RRIRLRPPRLPRPRPRPYMNPRP, the “shrunken log2 fold change” value is -1.06.

On to RRIRTRPPRLPRPRPRPSCAPRP, for which the “shrunken log2 fold change” value is -0.127.

In the case of RRIRTRPPRLPRPRPRPPNRPRP, the “shrunken log2 fold change” value was found to be 0.135. Turning to RRIRTRPPRLPRPRPRPKRGPRP, the “shrunken log2 fold change” value turned out to be 0.175. For the sequence RRIRDRPPRLPRPRPRPDIKPRP, the “shrunken log2 fold change” value turned out to be 0.543. For the sequence RRIRTRPPRLPRPRPRPCHCPRP, the “shrunken log2 fold change” value is -1.43. For RRIRSRPPRLPRPRPRPSRGPRP, the “shrunken log2 fold change” value came out at 0.483. With RRIRWRPPRLPRPRPRPKFNPRP, the “shrunken log2 fold change” value is -0.434. The value for RRIRPRPPRLPRPRPRPRNIPRP was -0.222.

As to RRIRGRPPRLPRPRPRPAGGPRP, the “shrunken log2 fold change” value worked out at 0.714. As to RRIRRRPPRLPRPRPRPPKYPRP, the “shrunken log2 fold change” value is -0.14.

Consider RRIRKRPPRLPRPRPRPWETPRP, for which the “shrunken log2 fold change” value was 0.696.

As for RRIRYRPPRLPRPRPRPERAPRP, the “shrunken log2 fold change” value was found to be 0.173. In the case of RRIRTRPPRLPRPRPRPFREPRP it was -0.0376; in that of RRIRPRPPRLPRPRPRPTNPPRP, 0.174. Turning to RRIRFRPPRLPRPRPRPWVIPRP, the “shrunken log2 fold change” value is -0.412. As for RRIRTRPPRLPRPRPRPRGHPRP, the “shrunken log2 fold change” value was determined as 0.182.

With RRIRSRPPRLPRPRPRPDTHPRP, the “shrunken log2 fold change” value was -0.448. For the sequence RRIRMRPPRLPRPRPRPLWAPRP, the “shrunken log2 fold change” value amounted to 0.509. In the case of RRIRQRPPRLPRPRPRPHSNPRP it was -0.0311. On to RRIRDRPPRLPRPRPRPRQSPRP, for which the “shrunken log2 fold change” value is -0.00504. Regarding RRIRFRPPRLPRPRPRPMGAPRP, the “shrunken log2 fold change” value was -0.0556.

For the sequence RRIRMRPPRLPRPRPRPPNDPRP, the “shrunken log2 fold change” value was determined as 0.574. The value for RRIRARPPRLPRPRPRPTLKPRP was 0.605; that for RRIRLRPPRLPRPRPRPNRYPRP was 0.0611.

Regarding RRIRYRPPRLPRPRPRPPKNPRP, the “shrunken log2 fold change” value is -0.164. As for RRIRARPPRLPRPRPRPDLEPRP, the “shrunken log2 fold change” value was determined as 0.0744.

On to RRIRGRPPRLPRPRPRPYRLPRP, for which the “shrunken log2 fold change” value was -0.233. On to RRIRPRPPRLPRPRPRPNCQPRP, for which the “shrunken log2 fold change” value was determined as 0.419. In the case of RRIRWRPPRLPRPRPRPWDFPRP, the “shrunken log2 fold change” value is -0.2. As for RRIRVRPPRLPRPRPRPLSLPRP, the “shrunken log2 fold change” value is -0.0403.

Turning to RRIRIRPPRLPRPRPRPKFNPRP, the “shrunken log2 fold change” value was -1.09. Regarding RRIRERPPRLPRPRPRPKWAPRP, the “shrunken log2 fold change” value worked out at 0.0574. The value for RRIRQRPPRLPRPRPRPCKTPRP was -0.01. For RRIRFRPPRLPRPRPRPCFCPRP, the “shrunken log2 fold change” value was -0.453.

As for RRIRPRPPRLPRPRPRPSLTPRP, the “shrunken log2 fold change” value is -0.22. In the case of RRIRMRPPRLPRPRPRPAYIPRP it was 0.768. As to RRIRRRPPRLPRPRPRPWIYPRP, the “shrunken log2 fold change” value was -0.118. As to RRIRNRPPRLPRPRPRPHATPRP, the “shrunken log2 fold change” value turned out to be 0.00661. Turning to RRIRLRPPRLPRPRPRPNQAPRP, the “shrunken log2 fold change” value is -0.0446. Turning to RRIRVRPPRLPRPRPRPHEMPRP, the “shrunken log2 fold change” value was -0.058. Take RRIRGRPPRLPRPRPRPDFQPRP: the “shrunken log2 fold change” value amounted to 1.01.

In the case of RRIRRRPPRLPRPRPRPYIVPRP, the “shrunken log2 fold change” value is -0.263. The value for RRIRSRPPRLPRPRPRPVAKPRP was 0.116; that for RRIRWRPPRLPRPRPRPWWRPRP was 0.0782; that for RRIRDRPPRLPRPRPRPHPLPRP was -0.216. With RRIRVRPPRLPRPRPRPGAKPRP, the “shrunken log2 fold change” value amounted to 0.189. Turning to RRIRPRPPRLPRPRPRPTLPPRP, the “shrunken log2 fold change” value is 0.309. The value for RRIRERPPRLPRPRPRPFMGPRP was -0.0195; that for RRIRRRPPRLPRPRPRPSINPRP was -0.13; that for RRIRVRPPRLPRPRPRPQYRPRP was -0.134. Turning to RRIRPRPPRLPRPRPRPHMPPRP, the “shrunken log2 fold change” value is -0.154.

For the sequence RRIRDRPPRLPRPRPRPLQIPRP, the “shrunken log2 fold change” value is -0.21. As for RRIRMRPPRLPRPRPRPFVIPRP, the “shrunken log2 fold change” value is -0.197. In the case of RRIRTRPPRLPRPRPRPRSMPRP, the “shrunken log2 fold change” value was 0.0542. In the case of RRIRLRPPRLPRPRPRPFQCPRP it was 0.000653; in that of RRIRVRPPRLPRPRPRPCTDPRP, -0.46. The value for RRIRWRPPRLPRPRPRPKWAPRP was 0.507.

For RRIRMRPPRLPRPRPRPELEPRP, the “shrunken log2 fold change” value was 4.13. Take RRIRRRPPRLPRPRPRPHKVPRP: the “shrunken log2 fold change” value came out at 0.0772. For RRIRNRPPRLPRPRPRPERHPRP, the “shrunken log2 fold change” value was found to be 0.204.

For RRIRMRPPRLPRPRPRPCIWPRP, the “shrunken log2 fold change” value was found to be 0.0563.

As for RRIRTRPPRLPRPRPRPSDYPRP, the “shrunken log2 fold change” value was -0.278. Regarding RRIRCRPPRLPRPRPRPAFTPRP, the “shrunken log2 fold change” value came to 0.0636.

On to RRIRYRPPRLPRPRPRPKDHPRP, for which the “shrunken log2 fold change” value is -0.487. Consider RRIRDRPPRLPRPRPRPTKKPRP, for which the “shrunken log2 fold change” value was -0.0587.

Regarding RRIRWRPPRLPRPRPRPQSAPRP, the “shrunken log2 fold change” value worked out at 0.372. The value for RRIRFRPPRLPRPRPRPACFPRP was 0.0876; that for RRIRHRPPRLPRPRPRPWWAPRP was -0.162; that for RRIRARPPRLPRPRPRPPCFPRP was 0.482.

On to RRIRARPPRLPRPRPRPPNGPRP, for which the “shrunken log2 fold change” value is -0.00234. With RRIRIRPPRLPRPRPRPFHSPRP, the “shrunken log2 fold change” value is -0.16. Regarding RRIRDRPPRLPRPRPRPGEFPRP, the “shrunken log2 fold change” value is -0.117. For the sequence RRIRMRPPRLPRPRPRPQCMPRP, the “shrunken log2 fold change” value is -0.0822.

As to RRIRDRPPRLPRPRPRPVQDPRP, the “shrunken log2 fold change” value amounted to 0.0144.

With RRIRVRPPRLPRPRPRPNANPRP, the “shrunken log2 fold change” value came to 0.063. With RRIRHRPPRLPRPRPRPRLAPRP, the “shrunken log2 fold change” value came to 0.206. With RRIRPRPPRLPRPRPRPVSQPRP, the “shrunken log2 fold change” value is -0.0764.

As to RRIRPRPPRLPRPRPRPEWRPRP, the “shrunken log2 fold change” value turned out to be 0.362.

Turning to RRIRSRPPRLPRPRPRPWNLPRP, the “shrunken log2 fold change” value was -1.05.

With RRIRMRPPRLPRPRPRPQQPPRP, the “shrunken log2 fold change” value is 0.0363. With RRIRVRPPRLPRPRPRPTHHPRP, the “shrunken log2 fold change” value turned out to be 0.586. The value for RRIRARPPRLPRPRPRPGYEPRP was 0.246; that for RRIRLRPPRLPRPRPRPAIHPRP was -0.192. RRIRWRPPRLPRPRPRPYARPRP: the “shrunken log2 fold change” value amounted to 0.101. RRIRQRPPRLPRPRPRPKIAPRP: the “shrunken log2 fold change” value came to 0.278. With RRIRQRPPRLPRPRPRPLTKPRP, the “shrunken log2 fold change” value is 0.184. As to RRIRARPPRLPRPRPRPMPQPRP, the “shrunken log2 fold change” value stood at 0.378.

As to RRIRLRPPRLPRPRPRPQRDPRP, the “shrunken log2 fold change” value was 0.231.
